Reference: patent publication US20240182541A1 (CONCEPT TO MEDICINE BIOTECH, published 2024)

T1: B7-H3 on B7H3-expressing A375 and A375.S2 cells (UniProt Q5ZPR3 29-534, limits assumed)
T1 construct: whole, on cells
T1 sequence (looked up): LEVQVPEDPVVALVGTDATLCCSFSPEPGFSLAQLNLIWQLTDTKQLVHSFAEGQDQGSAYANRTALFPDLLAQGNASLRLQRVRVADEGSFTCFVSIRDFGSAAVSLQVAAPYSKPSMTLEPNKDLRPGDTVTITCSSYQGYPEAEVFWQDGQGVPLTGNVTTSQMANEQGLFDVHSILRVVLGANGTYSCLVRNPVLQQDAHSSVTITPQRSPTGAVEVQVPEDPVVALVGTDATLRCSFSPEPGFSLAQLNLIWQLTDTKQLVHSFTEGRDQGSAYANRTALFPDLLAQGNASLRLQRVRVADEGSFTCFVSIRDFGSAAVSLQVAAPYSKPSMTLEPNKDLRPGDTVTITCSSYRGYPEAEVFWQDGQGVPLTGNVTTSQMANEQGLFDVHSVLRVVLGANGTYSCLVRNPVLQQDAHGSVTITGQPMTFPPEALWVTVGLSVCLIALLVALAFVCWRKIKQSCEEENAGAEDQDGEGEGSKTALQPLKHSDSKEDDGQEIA


What was measured:
[1] = molecular target: T1, B7-H3 on B7H3-expressing A375 and …; experiment: cell-based binding on A375 and A375.S2 cells (FIG. 13)
[2] = molecular target: T1, B7-H3 on B7H3-expressing A375 and …; experiment: binding to B7H3-expressing A375 cell line (FIG. 18)
Description: The binding of these prodrugs against B7H3-expressing A375 cell line were tested.

[3] = molecular target: T1, B7-H3 on B7H3-expressing A375 and …; experiment: cell-based binding assay (FIG. 15A)
[4] = molecular target: T1, B7-H3 on B7H3-expressing A375 and …; experiment: FACS on B7H3-expressing A375 and A375.S2 cells

Row | binding result [1] | Binder | also measured
1 | binds | MGA017-mIgG1 (parental antibody of Formats 28-31) (antibody, V domains shown, mIgG1; also called parental antibody MGA017; naked antibody MGA017) VH: EVQLVESGGGLVKPGGSLRLSCAASGFTFSSYGMSWVRQAPGKGLEWVATINSGGSNTYYPDSLKGRFTISRDNAKNSLYLQMNSLRAEDTAVYYCARHDGGAMDYWGQGTTVTVSS VL: DIQMTQSPSSLSASVGDRVTITCRASESIYSYLAWYQQKPGKAPKLLVYNTKTLPEGVPSRFSGSGSGTDFTLTISSLQPEDFATYYCQHHYGTPPWTFGQGTRLEIK | –
2 | binds | Format 29 (KIH CH3Δ6 mask + cleavable linker PLGLAG on MGA017 variable regions, mIgG1) (antibody, Antibody prodrug against B7-H3, uncleaved) heavy: GQPREPQVCTLPPSRDELTKNQVSLSCAVKGFYPSDIAVEWESNGQPENNYKTTPPVLDSDGSFFLVSKLTVDKSRWQQGNVFSCSVMHEALHNHYTQKSLPLGLAGEVQLVESGGGLVKPGGSLRLSCAASGFTFSSYGMSWVRQAPGKGLEWVATINSGGSNTYYPDSLKGRFTISRDNAKNSLYLQMNSLRAEDTAVYYCARHDGGAMDYWGQGTTVTVSSAKTTPPSVYPLAPGSAAQTNSMVTLGCLVKGYFPEPVTVTWNSGSLSSGVHTFPAVLQSDLYTLSSSVTVPSSTWPSETVTCNVAHPASSTKVDKKIVPRDCGCKPCICTVPEVSSVFIFPPKPKDVLTITLTPKVTCVVVDISKDDPEVQFSWFVDDVEVHTAQTQPREEQFNSTFRSVSELPIMHQDWLNGKEFKCRVNSAAFPAPIEKTISKTKGRPKAPQVYTIPPPKEQMAKDKVSLTCMITDFFPEDITVEWQWNGQPAENYKNTQPIMDTDGSYFVYSKLNVQKSNWEAGNTFTCSVLHEGLHNHHTEKSLSHSPGK light: GQPREPQVYTLPPCRDELTKNQVSLWCLVKGFYPSDIAVEWESNGQPENNYKTTPPVLDSDGSFFLYSKLTVDKSRWQQGNVFSCSVMHEALHNHYTQKSLPLGLAGDIQMTQSPSSLSASVGDRVTITCRASESIYSYLAWYQQKPGKAPKLLVYNTKTLPEGVPSRFSGSGSGTDFTLTISSLQPEDFATYYCQHHYGTPPWTFGQGTRLEIKRADAAPTVSIFPPSSEQLTSGGASVVCFLNNFYPKDINVKWKIDGSERQNGVLNSWTDQDSKDSTYSMSSTLTLTKDEYERHNSYTCEATHKTSTSPIVKSFNRNEC | –

Continued, binder first:

Row | Binder | binding result [1] | also measured
3 | Format 30 (KIH CH3Δ6 mask + cleavable linker PLGLAGGGGS on MGA017 variable regions, mIgG1) (antibody, Antibody prodrug against B7-H3, uncleaved) heavy: GQPREPQVCTLPPSRDELTKNQVSLSCAVKGFYPSDIAVEWESNGQPENNYKTTPPVLDSDGSFFLVSKLTVDKSRWQQGNVFSCSVMHEALHNHYTQKSLPLGLAGGGGSEVQLVESGGGLVKPGGSLRLSCAASGFTFSSYGMSWVRQAPGKGLEWVATINSGGSNTYYPDSLKGRFTISRDNAKNSLYLQMNSLRAEDTAVYYCARHDGGAMDYWGQGTTVTVSSAKTTPPSVYPLAPGSAAQTNSMVTLGCLVKGYFPEPVTVTWNSGSLSSGVHTFPAVLQSDLYTLSSSVTVPSSTWPSETVTCNVAHPASSTKVDKKIVPRDCGCKPCICTVPEVSSVFIFPPKPKDVLTITLTPKVTCVVVDISKDDPEVQFSWFVDDVEVHTAQTQPREEQFNSTFRSVSELPIMHQDWLNGKEFKCRVNSAAFPAPIEKTISKTKGRPKAPQVYTIPPPKEQMAKDKVSLTCMITDFFPEDITVEWQWNGQPAENYKNTQPIMDTDGSYFVYSKLNVQKSNWEAGNTFTCSVLHEGLHNHHTEKSLSHSPGK light: GQPREPQVYTLPPCRDELTKNQVSLWCLVKGFYPSDIAVEWESNGQPENNYKTTPPVLDSDGSFFLYSKLTVDKSRWQQGNVFSCSVMHEALHNHYTQKSLPLGLAGGGGSDIQMTQSPSSLSASVGDRVTITCRASESIYSYLAWYQQKPGKAPKLLVYNTKTLPEGVPSRFSGSGSGTDFTLTISSLQPEDFATYYCQHHYGTPPWTFGQGTRLEIKRADAAPTVSIFPPSSEQLTSGGASVVCFLNNFYPKDINVKWKIDGSERQNGVLNSWTDQDSKDSTYSMSSTLTLTKDEYERHNSYTCEATHKTSTSPIVKSFNRNEC | binds | –
4 | Format 33 (IgG1 CH3Δ6 hole / IgG4 CH3Δ6 knob mask + GGGS on MGA017 variable regions, hIgG1) (antibody, Antibody prodrug against B7-H3) heavy: not shown light: GQPREPQVYTLPPCQEEMTKNQVSLWCLVKGFYPSDIAVEWESNGQPENNYKTTPPVLDSDGSFFLYSRLTVDKSRWQEGNVFSCSVMHEALHNHYTQKSLGGGSDIQMTQSPSSLSASVGDRVTITCRASESIYSYLAWYQQKPGKAPKLLVYNTKTLPEGVPSRFSGSGSGTDFTLTISSLQPEDFATYYCQHHYGTPPWTFGQGTRLEIKRTVAAPSVFIFPPSDEQLKSGTASVVCLLNNFYPREAKVQWKVDNALQSGNSQESVTEQDSKDSTYSLSSTLTLSKADYEKHKVYACEVTHQGLSSPVTKSFNRGEC | – | binding result [2]: binds
5 | Format 34 (CLκ on VH / CH1 plus EPKSC on VL as mask + GGGS on MGA017 variable regions, hIgG1) (antibody, Antibody prodrug against B7-H3) heavy: not shown light: ASTKGPSVFPLAPSSKSTSGGTAALGCLVKDYFPEPVTVSWNSGALTSGVHTFPAVLQSSGLYSLSSVVTVPSSSLGTQTYICNVNHKPSNTKVDKKVEPKSCGGGSDIQMTQSPSSLSASVGDRVTITCRASESIYSYLAWYQQKPGKAPKLLVYNTKTLPEGVPSRFSGSGSGTDFTLTISSLQPEDFATYYCQHHYGTPPWTFGQGTRLEIKRTVAAPSVFIFPPSDEQLKSGTASVVCLLNNFYPREAKVQWKVDNALQSGNSQESVTEQDSKDSTYSLSSTLTLSKADYEKHKVYACEVTHQGLSSPVTKSFNRGEC | – | binding result [2]: binds
6 | Format 31 (KIH CH3Δ6 mask + cleavable linker IPVSLRSGPLGLAG on MGA017 variable regions, mIgG1) (antibody, Antibody prodrug against B7-H3, uncleaved) heavy: GQPREPQVCTLPPSRDELTKNQVSLSCAVKGFYPSDIAVEWESNGQPENNYKTTPPVLDSDGSFFLVSKLTVDKSRWQQGNVFSCSVMHEALHNHYTQKSLIPVSLRSGPLGLAGEVQLVESGGGLVKPGGSLRLSCAASGFTFSSYGMSWVRQAPGKGLEWVATINSGGSNTYYPDSLKGRFTISRDNAKNSLYLQMNSLRAEDTAVYYCARHDGGAMDYWGQGTTVTVSSAKTTPPSVYPLAPGSAAQTNSMVTLGCLVKGYFPEPVTVTWNSGSLSSGVHTFPAVLQSDLYTLSSSVTVPSSTWPSETVTCNVAHPASSTKVDKKIVPRDCGCKPCICTVPEVSSVFIFPPKPKDVLTITLTPKVTCVVVDISKDDPEVQFSWFVDDVEVHTAQTQPREEQFNSTFRSVSELPIMHQDWLNGKEFKCRVNSAAFPAPIEKTISKTKGRPKAPQVYTIPPPKEQMAKDKVSLTCMITDFFPEDITVEWQWNGQPAENYKNTQPIMDTDGSYFVYSKLNVQKSNWEAGNTFTCSVLHEGLHNHHTEKSLSHSPGK light: GQPREPQVYTLPPCRDELTKNQVSLWCLVKGFYPSDIAVEWESNGQPENNYKTTPPVLDSDGSFFLYSKLTVDKSRWQQGNVFSCSVMHEALHNHYTQKSLIPVSLRSGPLGLAGDIQMTQSPSSLSASVGDRVTITCRASESIYSYLAWYQQKPGKAPKLLVYNTKTLPEGVPSRFSGSGSGTDFTLTISSLQPEDFATYYCQHHYGTPPWTFGQGTRLEIKRADAAPTVSIFPPSSEQLTSGGASVVCFLNNFYPKDINVKWKIDGSERQNGVLNSWTDQDSKDSTYSMSSTLTLTKDEYERHNSYTCEATHKTSTSPIVKSFNRNEC | – | binding result [3]: binds
7 | Format 28 (KIH CH3Δ6 mask + cleavable linker IPVSLRSG on MGA017 variable regions, mIgG1) (antibody, Antibody prodrug against B7-H3, uncleaved) heavy: GQPREPQVCTLPPSRDELTKNQVSLSCAVKGFYPSDIAVEWESNGQPENNYKTTPPVLDSDGSFFLVSKLTVDKSRWQQGNVFSCSVMHEALHNHYTQKSLIPVSLRSGEVQLVESGGGLVKPGGSLRLSCAASGFTFSSYGMSWVRQAPGKGLEWVATINSGGSNTYYPDSLKGRFTISRDNAKNSLYLQMNSLRAEDTAVYYCARHDGGAMDYWGQGTTVTVSSAKTTPPSVYPLAPGSAAQTNSMVTLGCLVKGYFPEPVTVTWNSGSLSSGVHTFPAVLQSDLYTLSSSVTVPSSTWPSETVTCNVAHPASSTKVDKKIVPRDCGCKPCICTVPEVSSVFIFPPKPKDVLTITLTPKVTCVVVDISKDDPEVQFSWFVDDVEVHTAQTQPREEQFNSTFRSVSELPIMHQDWLNGKEFKCRVNSAAFPAPIEKTISKTKGRPKAPQVYTIPPPKEQMAKDKVSLTCMITDFFPEDITVEWQWNGQPAENYKNTQPIMDTDGSYFVYSKLNVQKSNWEAGNTFTCSVLHEGLHNHHTEKSLSHSPGK light: GQPREPQVYTLPPCRDELTKNQVSLWCLVKGFYPSDIAVEWESNGQPENNYKTTPPVLDSDGSFFLYSKLTVDKSRWQQGNVFSCSVMHEALHNHYTQKSLIPVSLRSGDIQMTQSPSSLSASVGDRVTITCRASESIYSYLAWYQQKPGKAPKLLVYNTKTLPEGVPSRFSGSGSGTDFTLTISSLQPEDFATYYCQHHYGTPPWTFGQGTRLEIKRADAAPTVSIFPPSSEQLTSGGASVVCFLNNFYPKDINVKWKIDGSERQNGVLNSWTDQDSKDSTYSMSSTLTLTKDEYERHNSYTCEATHKTSTSPIVKSFNRNEC | binds | –
8 | MGA017 (parental naked anti-B7-H3 antibody) (antibody, V domains shown, Anti-B7-H3 antibody from MacroGenics; also called un-masked MGA017; parental naked antibody of Format 12) VH: EVQLVESGGGLVKPGGSLRLSCAASGFTFSSYGMSWVRQAPGKGLEWVATINSGGSNTYYPDSLKGRFTISRDNAKNSLYLQMNSLRAEDTAVYYCARHDGGAMDYWGQGTTVTVSS VL: DIQMTQSPSSLSASVGDRVTITCRASESIYSYLAWYQQKPGKAPKLLVYNTKTLPEGVPSRFSGSGSGTDFTLTISSLQPEDFATYYCQHHYGTPPWTFGQGTRLEIK | – | binding result [4]: binds
